The domain aggregation screens of Martell et al. (2025)

Assay: soluble fraction after stress (log2 fold change); higher = more stays soluble; pooled small domains, quantitative proteomics
Settings: stress: 50 degC
In short: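 Each library was heated to 50°C as a stress step. The libraries, made up of small protein domains, were pooled and analysed at high throughput by quantitative proteomics. The reported value is the base-two logarithm of the fold change in each protein's soluble amount after stress, taken as a measure of aggregation propensity. The higher the value, the more protein stays in solution.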

Sequence | soluble fraction (log2)
HMKKLPEKFDYNEISGLRIEAQQKLNEFQPLNIGQASRISGVTPADISVLLVYLEQLKYSNPDLFFKLNPD | -0.798
HMKKLTAEEIQEAKDILEKIQEIPNFKKIFGDDTIKALENSTKTGVLLPDNIISKIHTLMIRFGIK | 0.237
HMKKMEEEFALFNAWVDRRLGIPLAAYKENQMQRRILTIMENSGAKTLREYQQLIEGDEGVRAAFLAHIT | -1.1
HMKKPIYLTIANDIEKKIFNNDYPKNERLPSERNLAEEYGVTRMTIRNSIEYLVSKGLLEKRLGSGNYVKR | -0.646
HMKKPLEYIDVDKREDFPPVPNGMRYIHFYGGTKNYRAYIAPEDISRADFMEQYPEYVPEHN | 0.184
HMKKSTLLLFFLKELLEGKKISLKSFALENDINIRTAQRYIEDIEEAFPDNLLKENDFYSFV | -2.25
HMKKTETVRFTTNVTHGTKIKETDVEVVKISNSALPDKVVKNKTEVIGKYATADLFKGDFATENKVTD | 0.0533
HMKKTIIVHVVGEVNTPGIVELNEGARIIDAINGAGGKTEEADMSKINLAYVIEDGSQIYVPSIYE | -0.227
HMKKTITISNYINVRDFATMSELPVNSILSVLMKNGIFVSLNEKIDFDTAWLVGSELGLEVKQKQG | -0.214
HMKKYEFIEDLPGVGPATAQKLRDLGYHTVESLAMATARELEPIGVGEKKAFSMIEAARSAIGFS | 0.283
HMKKYISEEQAKQAALETAGGGSVVKIKFTTDDGIKVYEIDIINGNYEYEITVHAETGKILDVDKERIH | -1.04
HMKLELSNDFYNKIRLARKENGLTQEDLAEKLNMKVGVIQKIENGVRQTDSNLMKISKFLGVEIYVE | -1.46
HMKLPNGYGGIAKLSGKRRNPWRVRVTKGWSVDEQTGKAKQLFSTLGYYPTRKDALAALSAYNQNP | -0.942
HMKLRLGVNIDPVATVRNARGSAYPDPVRAAIIAQEAGADGITAHLREDRRHIVDQDITSIIKAIDIPLNF | -0.0391
HMKLRSIQEQVQYLEKVDNQKAMQIILNMNDKASAVQILRNMKKEKAAAILAQMDPLQAAQILEDLA | 0.0608
HMKLSDDIIVDTIKEIIEENKNMIEQRKMGAMGPLMGKAMAKFKGKADGQTVSNVIKDEILNIIN | 0.154
HMKLSIEDLAAELIRKIEAGDIGNEQGKMPSERELLAIYPVSRYTLRQALNKLSKMGWIYQMQGRGSYIRF | -1.35
HMKLSNELLNAIMLIKKGIRNPTSLAQRLNTDTQYAKNLLEHLKMTGLINEHSRLTSRGLDIFHQK | 0.163
HMKLTEEEFNAKRKAYLDRLETLNDEAVIKATFMEAASGLGLQKGSAEFGDLRKYFVDRIVDIK | 0.385
HMKLTEGETIFLNESDTADWKKIPGIGSVYASRIVKYRNLLGGFVSVNQLREVYGIDDELFAKIYPYI | -0.0044
HMKLTESQLHKFTNDAVLAHIRNLIEFKGAFTEDDIEPIIRDRAAVYGIDLEDEDYKKVKTDVEYHFK | -0.000214
HMKLVELVGSPKQIAWAEDIRKNMISYLSALVRKYEAENRPARAEKRAKDMEILSNIKEASWFIENRS | -0.661
HMKMAKTIKEIAEEIGVSKQAVFKKIKQVPLSTEIEKFISTVDGKKLVSVDGENLIKQAFQR | 0.325
HMKMLKAPIPGTIIEVKVNPGQTVNDGDVAVVLEAMKMESDIHFNSSGKVKKIHVNKGDSVQEGDDLIELE | 0.0938
HMKMNRELNQRQIKMLDYLSVNPKTTRKQYTKMMGISFMTSYRDIQELIDKAYIISKGQGRGTYYILAN | -0.569
HMKMQIGEIIRKYRKSNHMTQEEMAERLGVSAPAVNKWENGNSMPDIMLLAPITRLLGISLDELLSFE | -1.24
HMKMSVEEVNLSPRTTNALINNDIKTMKDLVALTDTELRDLKGFGSKAYEEVKEKLSELGLSTQ | 0.227
HMKMSVKNEIISLLEKNRDTSISGQVIADSLNVTRAAVWKAIKVLKEEGYNIDGTPNKGYILLGNN | -0.368

Sequence | soluble fraction (log2)
HMKMTFGENLHKLRKIYRLSQEDVASAINLKRSDIAAVEKGDRVLNDEELDKLADFIGIDIVDLL | -0.193
HMKMVSTPTGTRISLTQVKEFISNASFDDMKEILLEVLAWFKAHNLGNPFNYNRAFEFIVAH | 0.102
HMKNELNSKLIISIKEALPPQIKVATYLMDLLSLGREAVYRRIRGDVSFDLEELSIISKALNISIDDVL | -4.15
HMKNESLMLPRDIDYSRVHGLSNEAIQKLQDALPQSLGQASRIEGITPATLSLLLLYLKKNNKRI | -0.00929
HMKNHSTFKSVLSNIEFPINERISGHAIQNPILGLIKADHPNFSSDQYIAISELNFYREKYISNYLLTEI | -3.35
HMKNKIYGTIVSSTSGEETVYKVFQVDSSKDITYLFRPDMIRLAHENNQALEFNEETGRGKRIEMSDLPK | 0.0213
HMKNLHLVPNVVGMSAKEAKNTLKSFNIKYKPIYGSSNKYDENYIFNQNPRKGKTIKEQEVVTIYISRGAD | -1.07
HMKNNNIIFSEFLKEVENGRVVEVRIQGNNIQGIMSNGKEFTTYSPNYPNLIEKLTETGVSISAAPL | 0.0449
HMKNPLIIGMTKDKIIELIGMPDNIKFLDSSLSKSEVWNYDKFGKKLYIKDEKLYQIENIEE | 0.016
HMKNSAAKETILAFLKKNGGELFTQMQIIEKFQKMIPAPVLRITLEELLNKGQVEITSKGKYYLSVKGS | -0.587
HMKNSKIVIQKRHNHILELLKQNRTMDVTVLAERLGVTGATIRRDLKKLEQEGTIVRSFGKVSFVG | -0.867
HMKNTVGEYRKLKSTTILYSNSDLTGTKYTYLPNTTVKILKNISSTVDYVYIKATNRYAYINIYAYT | -2.75
HMKNVENIILEQLKKNIYDDLNNASFEEIILIDAEKSIYKGTIKANYIEYNFKINLSTGEILKWKLK | -0.117
HMKNVSVKMILSPESLGEIQVDLVFSKGKDLEIMLRPETAEVAKLIQSNSASLREQLSLEHKGPLSLNVS | -0.626
HMKNYALHEPMMDRIAKVNALYDAGHTIKYMTARGAVSMVDYYDLTKSQLDSWGAKYHELSVGK | -0.0372
HMKNYYEVLGVPRDAAAPDIKRAFRKLAKQFHPDHNPGDAKAEERFKLVSQAYDVLGDEEKRKLYDQFGE | 0.173
HMKNYYSILGVTPDSSEAEIKSAYRRLARKFHPDVNPDGASRFKDISEAYETLSDAKKRFQYDTINGF | 0.107
HMKPATSITFIPSERPDLVEQLSKITFDKKDSLYENYINLNWLTFEAISVYMREGDIIGFST | 0.0284
HMKPDAAKREQLIDIALRLFSQQGIARTSLNAIAREAGVTPAMLHYYFNSREQLLDVMIEERFL | -3.09
HMKPDIETQLKKYRYKVSVSKKIKPYMVFSDKTLSELLTKSPTNLKELEDINGFGPVKVQEYGAAILEILK | -0.777
HMKPDSEFTSQDLWQNDLAGTGSAAYRRDKMGALLGIGYGNAKRFLERLNSYGVTRSEFDEALAQLGE | -0.0612
HMKPEDIALLEEIRDLLKEKKSVIVNLEYVNKDVARRIVDFISGGVFALNGHIQKVSNSIFLVAPMN | 0.00619
HMKPMNNNDILRRLRYTFDLSDDKMMETFALGGYEANRSEISDWLKKDDHPEQKSLYDKSLSHFLNGFIV | -0.202
HMKPPVQVIGKAVVTASSLNVRTGPGTGHGIITSLPRNTEVELLEQQGEWYKIRRGSTVGYVHGGYLKIN | -0.00404
HMKPRISMITLGVKDLNKSIEFYGGGLGFPRKKTEPEIAIFKLNGSWLSLYNRGLLAEDANVS | -0.0946
HMKPSKYTLAIDSIPVHVTRKQMKSIRLRVTPLGEVRVSAPYGVKDSEIVEMVRSRKLWIESQQRA | -0.992
HMKPSTETLYATARINVRAAADTSAEKLGSIEMGEAVVRTGTDGDWSIIEYNGSTGYVKSEYLTANAGDAT | -0.0962
